{
  "source": "patent EP4541822A2",
  "about": "(Tsinghua University, dated 2025)",
  "binders": {"B1": {"name": "recombinant protein (SH3)5-DNB (other)", "chain": "MKHHHHHHHENLYFQGHMDLNMPAYVKFNYMAEREDELSLIKGTKVIVMEKSSDGWWRGSYNGQVGWFPSNYVTEEGDSPLASGAGGSEGGGSEGGTSGATDLNMPAYVKFNYMAEREDELSLIKGTKVIVMEKSSDGWWRGSYNGQVGWFPSNYVTEEGDSPLASGAGGSEGGGSEGGTSGATHMDLNMPAYVKFNYMAEREDELSLIKGTKVIVMEKSSDGWWRGSYNGQVGWFPSNYVTEEGDSPLASGAGGSEGGGSEGGTSGATDLNMPAYVKFNYMAEREDELSLIKGTKVIVMEKSSDGWWRGSYNGQVGWFPSNYVTEEGDSPLASGAGGSEGGGSEGGTSGATDLNMPAYVKFNYMAEREDELSLIKGTKVIVMEKSSDGWWRGSYNGQVGWFPSNYVTEEGDSPLGGSGGSGGSGGSMEVQLLESGGGLVQPGGSLRLSCAASGTFDKINNMGWYRQAPGKQRDLVAQITPGGITDYADSVKGRFTISRDNSKNTLYLQMNSLRPEDTAVYYCNAEILKRAYIDVYVNYWGQGTLVTVSS"}},
  "key": {"[1]": {"molecular_target": "T1, multivalent domain (SUM)5", "T1 construct": "Labelled with Alexa647 for imaging; also called (SUM)5 (Green)", "T1 sequence (chain, as listed by the source)": "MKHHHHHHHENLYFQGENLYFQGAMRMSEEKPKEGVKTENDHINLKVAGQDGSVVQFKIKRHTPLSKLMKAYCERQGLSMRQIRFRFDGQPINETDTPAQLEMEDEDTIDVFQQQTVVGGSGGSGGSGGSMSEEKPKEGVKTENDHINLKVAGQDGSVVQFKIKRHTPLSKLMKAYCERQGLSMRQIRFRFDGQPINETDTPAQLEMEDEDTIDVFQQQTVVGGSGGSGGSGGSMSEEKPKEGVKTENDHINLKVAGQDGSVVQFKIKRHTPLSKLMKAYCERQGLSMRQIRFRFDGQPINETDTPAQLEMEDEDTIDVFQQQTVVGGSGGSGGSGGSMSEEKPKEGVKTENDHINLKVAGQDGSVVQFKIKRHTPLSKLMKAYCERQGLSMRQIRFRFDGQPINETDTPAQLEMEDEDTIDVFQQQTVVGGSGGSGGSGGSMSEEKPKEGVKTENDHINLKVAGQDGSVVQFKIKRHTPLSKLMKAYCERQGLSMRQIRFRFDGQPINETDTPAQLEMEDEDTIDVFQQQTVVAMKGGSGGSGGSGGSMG", "assay": "confocal imaging of SJSA-1 cells, (SIM)6-R4L (Red) plus (SUM)5 (Green), 100 nM each (Fig. 2A)"}, "[2]": {"molecular_target": "T2, CXC motif chemokine receptor 4 (CXCR4) (human, UniProt P61073 1-352)", "T2 construct": "whole, on cells; Endogenous receptor on human tumour cell lines; also called chemokine receptor CXCR4", "T2 sequence (P61073 whole entry, the tested form may be a part)": "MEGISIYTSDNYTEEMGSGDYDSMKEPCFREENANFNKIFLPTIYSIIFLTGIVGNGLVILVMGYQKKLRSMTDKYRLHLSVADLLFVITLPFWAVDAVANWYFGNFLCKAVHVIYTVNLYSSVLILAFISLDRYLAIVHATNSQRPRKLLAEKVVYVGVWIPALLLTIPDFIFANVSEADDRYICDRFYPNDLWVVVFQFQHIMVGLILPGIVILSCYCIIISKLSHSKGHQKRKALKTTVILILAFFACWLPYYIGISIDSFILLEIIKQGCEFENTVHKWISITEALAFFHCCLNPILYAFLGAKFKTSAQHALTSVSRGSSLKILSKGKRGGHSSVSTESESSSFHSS", "assay": "confocal imaging of SJSA-1 cells; membrane puncta with the ligand fusions, none with the multivalent domains alone"}, "[3]": {"molecular_target": "T3, recombinant protein (SUM)3-DNB", "T3 construct": "The entry also holds a 7xHis tag and TEV site; Green-labelled for imaging; unlabelled in the apoptosis assays; also called (SUM)3-DNB (Green)", "assay": "fluorescence imaging of SJSA-1 cells (Figs. 5A, 5B)"}, "[4]": {"molecular_target": "T2, CXC motif chemokine receptor 4 (CXCR4)", "assay": "fluorescence imaging of SJSA-1 cells with anti-CXCR4 immunostaining (Figs. 5A, 5B)"}, "[5]": {"molecular_target": "B1", "assay": "confocal imaging of SJSA-1 cells, 100 nM each (Fig. 9A)"}, "[6]": {"molecular_target": "T4, recombinant protein (SUM)5-DNB", "T4 construct": "The entry also holds a 7xHis tag and TEV site; Labelled with Alexa647 for imaging; also called (SUM)5-DNB (Green)", "assay": "fluorescence imaging of SJSA-1 cells, 100 nM (Figs. 3A, 3B)"}, "[7]": {"molecular_target": "T2, CXC motif chemokine receptor 4 (CXCR4)", "assay": "fluorescence imaging of SJSA-1 cells with anti-CXCR4 immunostaining (Figs. 3A, 3B)"}, "[8]": {"molecular_target": "death receptor 5 (DR5) (human, UniProt O14763 56-440)", "assay": "cell-based or functional assay"}},
  "data": [
    {"binder": "recombinant protein (SIM)6-R4L (other, also called (SIM)6-R4L (Red)) MKHHHHHHHENLYFQGAMSSKVDVIDLTIESSSDEEEDPPAKRGGSGGSGGSGGSKVDVIDLTIESSSDEEEDPPAKRGGSGGSGGSGGSKVDVIDLTIESSSDEEEDPPAKRGAMKGGSGGSGGSGGSMSSKVDVIDLTIESSSDEEEDPPAKRGGSVGSGGSGGSKVDVIDLTIESSSDEEEDPPAKRGGSGGSGGRGGSKVDVIDLTIESSSDEEEDPPAKRGAMRCWGGSGGSGGSGGSMGMCYRKCRGGRRWCYQKCGGSGGSGGSGGS", "values": [
      {"measurement": "binding result", "setting": "[1]", "value": "binds"},
      {"measurement": "binding result", "setting": "[2]", "value": "binds"}
    ]},
    {"binder": "recombinant protein (SIM)3-CNB (other, The entry also holds a 7xHis tag and TEV site; Red-labelled for imaging; also called (SIM)3-CNB (Red)) MKHHHHHHHENLYFQGAMKVDVIDLTIESSSDEEEDPPAKRGGSGGSGGSGGSMMKVDVIDLTIESSSDEEEDPPAKRGGSGGSGGSGGSMMKVDVIDLTIESSSDEEEDPPAKRGGSGGSGGSGGSMGEVQLMESGGGLVQAGGSLRLSCAASGRTFNNYAMGWFRRAPKGEREFVAAITRSGVRSGVSAIYGDSVKDRFTISRDNAKNTLYLQMNSLKPEDTAVYTCAASAIGSGALRRFEYDYSGQGTQVTVSS", "values": [
      {"measurement": "binding result", "setting": "[3]", "value": "binds"},
      {"measurement": "binding result", "setting": "[4]", "value": "binds"}
    ]},
    {"binder": "recombinant protein (PRMH)5-CNB (other, The entry also holds a 7xHis tag and TEV site; Labelled with Alexa594; also called (PRMH)5-CNB (Red)) MKHHHHHHHENLYFQGHMKGGSWGGSKKTPPPVPPRTTSKGGSGGSGGSGGSKKTPPPVPPRTTSKGGSGGSGGSGGSKKTPPPVPPRTTSKGGSGGSGGSGGSKKTPPPVPPRTTSKGGSGGSGGSGGSKKTPPPVPPRTTSKGGSGSKNLYFQGGSGGSGGSGGSMEVQLMESGGGLVQAGGSLRLSCAASGRTFNNYAMGWFRRAPKGEREFVAAITRSGVRSGVSAIYGDSVKDRFTISRDNAKNTLYLQMNSLKPEDTAVYTCAASAIGSGALRRFEYDYSGQGTQVTVSS", "values": [
      {"measurement": "binding result", "setting": "[5]", "value": "binds"}
    ]},
    {"binder": "recombinant protein (SIM)6-CNB (other, The entry also holds a 7xHis tag and TEV site; Labelled with Alexa594 for imaging; also called (SIM)6-CNB (Red)) MKHHHHHHHENLYFQGAMSSKVDVIDLTIESSSDEEEDPPAKRGGSGGSGGSGGSKVDVIDLTIESSSDEEEDPPAKRGGSGGSGGSGGSKVDVIDLTIESSSDEEEDPPAKRGAMKGGSGGSGGSGGSMSSKVDVIDLTIESSSDEEEDPPAKRGGSVGSGGSGGSKVDVIDLTIESSSDEEEDPPAKRGGSGGSGGRGGSKVDVIDLTIESSSDEEEDPPAKRGAMRCWGGSGGSGGSGGSMGEVQLMESGGGLVQAGGSLRLSCAASGRTFNNYAMGWFRRAPKGEREFVAAITRSGVRSGVSAIYGDSVKDRFTISRDNAKNTLYLQMNSLKPEDTAVYTCAASAIGSGALRRFEYDYSGQGTQVTVSS", "values": [
      {"measurement": "binding result", "setting": "[6]", "value": "binds"},
      {"measurement": "binding result", "setting": "[7]", "value": "binds"}
    ]},
    {"binder": "B1", "values": [
      {"measurement": "apoptotic ratio of SJSA-1 cells, Annexin V-FITC/PI flow cytometry, 4 h; (SH3)5-DNB (Green) added together with (PRMH)5-CNB (Red) at 100 nM", "setting": "[8]", "value": "~58.4", "unit": "%"}
    ]}
  ]
}
